{"source": "patent US20250289871A1", "key": {"[1]": {"biological_target": "SARS-CoV-2 Delta + T51I + T95I spike protein (authentic virus) (SARS-CoV-2) (UniProt P0DTC2)", "test": "cell-based or functional assay"}, "[2]": {"biological_target": "SARS-CoV-2 D614G spike protein (authentic virus) (SARS-CoV-2) (UniProt P0DTC2)", "test": "cell-based or functional assay"}}}
{"substance": "cilgavimab (AZD1061) (antibody)", "values": [{"measurement": "Authentic Virus Neutralization IC50", "setting": "[1]", "result": 0.014, "unit": "µg/mL"}, {"measurement": "Authentic Virus Neutralization IC50", "setting": "[2]", "result": 0.066, "unit": "µg/mL"}]}
